According to US7829301B2, “Screening assays for binding antagonists of the AMD-associated variant of factor H (H384)” (The University of Manchester, priority 2006, dated 2010):
Changes are numbered by the printed parent chain.

T1: CRP (Homo sapiens, UniProt P02741)
T1 construct: purchased Calbiochem
T1 sequence (P02741 19-224): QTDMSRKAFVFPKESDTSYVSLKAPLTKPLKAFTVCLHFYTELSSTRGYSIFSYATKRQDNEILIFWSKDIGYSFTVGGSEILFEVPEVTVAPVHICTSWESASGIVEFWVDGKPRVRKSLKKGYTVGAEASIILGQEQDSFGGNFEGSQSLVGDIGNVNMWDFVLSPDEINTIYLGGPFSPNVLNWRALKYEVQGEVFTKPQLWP

B1: FHCCP6-8(H384): recombinant protein of Factor H CCPs 6-8, H384 allotype, with N-terminal non-authentic glycine (SEQ ID NO: 1) (protein, listed as Homo sapiens)
chain: MGTLKPCDYPDIKHGGLYHENMRRPYFPVAVGKYYSYYCDEHFETPSGSYWDHIHCTQDGWSPAVPCLRKCYFPYLENGYNQNHGRKFVQGKSIDVACHPGYALPKAQTTVTCMENGWSPTPRCIRVKTCSKSSIDIENGFISESQYTYALKEKAKYQCKLGYVTADGETSGSITCGKDGWSAQPTCI
modifications: VARIANT (1)...(188) Protein sequence of the FHCCP6-8 (H384) construct
B2: FHCCP6-8(Y384): recombinant Factor H CCPs 6-8, Y384 variant obtained by site-directed mutagenesis (SEQ ID NO: 3) (protein, listed as Homo sapiens)
chain: B1 chain with H84Y
modifications: VARIANT (1)...(188) FHCCP6-8 (Y384 allotype of mature Factor H)

Legend:
[1] = Microtitre plate assay: biotinylated proteins binding to immobilized heparin oligosaccharides of defined length
Excerpt: FIG. 10: Comparisons of the interactions of FHCCP6-8(H384) and the corresponding Y384 variant with heparin oligomers of different lengths. The binding of biotinylated-FHCCP6-8(H384) (black bars) or biotinylated-FHCCP6-8(Y384) (grey bars) to heparin oligosaccharides (dp4 to dp18) immobilized on microtitre plates plasma polymerized with allylamine. All values are plotted as mean absorbance values (n=8)±S.E.
The heparin/HS/DS-binding activities of the FHCCP6-8(H384) and FHCCP6-8(Y384) variants (using biotinylated-FHCCP6-8 constructs), and in some cases full-length Factor H (detected with an antibody), were compared using an assay where the glycosaminoglycans (GAGs) were immobilized on allylamine-coated EpranEx plates (Mahoney et al (2004) Anal. Biochem. 330, 123-129), kindly supplied by Plasso Technology Ltd., Sheffield, UK. Previously, we have shown that heparin/HS can bind non-covalently to surfaces plasma polymerized with allylamine in such a way that these GAGs can still associate with a wide-range of proteins (Mahoney et al. (2005) J. Biol. Chem. 280, 27044-27055; Mahoney et al. (2004) ibid).
In the case of the biotinylated FHCCP6-8(H384) and FHCCP6-8(Y384) constructs, bound material was detected by adding 200 μl/well of a 1:10,000 dilution of ExtrAvidin alkaline phosphatase (Sigma, Cat. No. E-2636) for 30 minutes. […]

CRP = molecular target: T1, CRP; experiment: Protein/protein binding assay with coated CRP
Experimental: FMOD was isolated from bovine articular cartilage (Heinghrd et al., (1986) J. Biol. Chem. 261, 13866-13872) and recombinant CRP was obtained from Calbiochem. Deglycosylated FMOD was prepared by treatment with N-glycosiadase F (Roche Applied Science) as previously described (Sjöberg et al. (2005) J. Biol. Chem. 280, 32301-32308).
CRP or FMOD was coated overnight at 4° C. onto microtiter plates (Maxisorp, Nunc) at a concentration of 10 μg/ml in 75 mM sodium carbonate buffer, pH 9.6. Wells treated only with coating buffer or 1% (w/v) BSA (Sigma) in coating buffer (for the assays involving FMOD) were used as negative controls. Between each step the wells were washed extensively with 50 mM Tris-HCl, 150 mM NaCl, 0.1% (v/v) Tween 20, pH 7.5. All wells were blocked with 1% (w/v) BSA (Sigma) in phosphate buffered saline (Invitrogen) for 1 hour at 37° C. […] The amount of bound protein was assessed using a goat polyclonal anti-FH antibody (Quidel, Cat # A312) followed by HRP-labeled anti-goat secondary antibodies (Dako) and the OPD development kit (Dako). Detection of biotinylated protein was performed using a StreptABComplex/HRP-kit from Dako, and in both cases the absorbance at 490 nm was measured to quantify protein binding.

[2] = Heparin affinity chromatography on HiTrap Heparin column; assay type: binding; details: pH 7.3; linear salt gradient 130 mM to 1 M NaCl
Experimental: The heparin-binding properties of H384 and Y384 variants of FHCCP6-8 were compared to full-length human factor H by affinity chromatography on a HiTrap Heparin column (Amersham Biosciences) or a ‘home-made’ column in which 20 mg 4IS was coupled to 1.5-ml CNBr-activated Sepharose (Sigma) in 0.1 M NaHCO3, 0.5 M NaCl, pH 8.3 using the manufacturer's protocol. The 1-ml HiTrap column and ˜1-ml 4IS-column were equilibrated in 20 mM HEPES, 130 mM NaCl, 1 mM EDTA, pH 7.3. Protein (200 μg recombinant proteins; 100 μg full-length factor H) was loaded onto the columns (in 1 ml equilibration buffer) and any unbound material was removed with 5 column volumes of the same buffer and collected in 1-ml fractions. Protein was eluted from the columns using a linear salt gradient of 130 mM to 1 M NaCl over 20 min by mixing 20 mM HEPES, 1 M NaCl, 1 mM EDTA, pH 7.3 with the equilibration buffer at a flow rate of 1 ml/min.
This approach was also used to determine the relative heparin-binding activities of K370A, R386A and K387A mutants, where 200 μg of protein was loaded individually onto the HiTrap column.

Molecule	binding to heparin oligosaccharides relative to the other variant ([1]; 4- to 18-mers)	binding to CRP relative to the other variant (CRP; biotinylated proteins)	NaCl concentration at elution from HiTrap heparin affinity column [2] [mM NaCl]	oligosaccharide length giving maximal binding [1] [sugars]	binding to CRP relative to the other variant (CRP; detection with polyclonal anti-FH antibody, p<0.03)
B1	bound better	lower CRP binding	340		
B2			390	~12	bound significantly better
